Measurements as given in a protein production outcome set (Wang et al. 2014).

Assay: label from the status in PepcDB records

Row | Sequence | protein production
1 | MLTMQEIKAHYRFTDEDAELLGSLFPLAETNKERLADQFYDYLLGIPETAEFLKEDLVLQKLKQTHQDWFVSLFAGSYDNRYIHNLQKIGHAHVRVGLNAHYVNVAMNVVRQFTLSIIQDNFPDPEERRQRREAVEKILDINLDIMSASYREEEMRKFFVSHRLESKLITATERFTYGLNLILVLALAGVSVSVVGLFIWDIGHIFQGSVEKGILSALGSLLILWMMIELIENEIKILKGGRFNILFFIGVIIVALIREILISTLRHDPLTTQVFLAGTLLVLGVVYFLVSKSQQPYTPH | failed
2 | MSSPYILVLYYSRHGATAEMARQIARGVEQGGFEARVRTVPAVSTECEAVAPDIPAEGALYATLEDLKNCAGLALGSPTRFGNMASPLKYFLDGTSSLWLTGSLVGKPAAVFTSTASLHGGQETTQLSMLLPLLHHGMLVLGIPYSEPALLETRGGGTPYGASHFAGADGKRSLDEHELTLCRALGKRLAETAGKLGS | not failed
3 | MLELKNENLTVQFSELGGQIISIKDKDGIEYLWQGEPTYWSGQAPVLFPICGSLRNDWAIYEPAERPTFTGTIPRHGLVRKMLFKNVKSTENSLEFSISSNEETVKNYPFEFELSINYSLFGKTIRIEYRVKNLEGHRKLPYFIGGHPGFNCPLLDGESYEDYYLEFEKVESCTVPRSFPETGLLDLRDRRPFLENQKTLDLSYKLFEYDAITLDQLASRKVTLKSKNHQKKLSIAFDDFPYLVIWSTTNQSPFIALEPWSGLSTSLEESDIFNAKRNISYVAPKEVDTKYFDIIIE | failed
4 | MVLIGTVVNGAAIVIAALIGLLVKNIPERVKTTLMQAIGLAIVLLGVKMGLQTEQFLIVICSLVIGGVIGEMINLEKRLDHLGRWIESKVGGKKDGSIATAFVTTTLIYVVGAMAVLGALDSGLRGDHSVLLTKALLDGFLAILFTSTLGIGVLFSAIPVVLYQGSIALFASQIDQYVPTALMDSFITEMSATGGVMIVAIGLNLLNVVNIRVANLLPSLVIVAVLVTFVYKGFPF | failed
5 | MSIKVGDVFKYERRFTEEEVFEFANITGDKGRHHMEYDENGRLMVHGLLTASIGTKVGEELHYIARELVSEFIRPVFAGDTITCELTLTNVEQMEGYKKVSIESVYRNQNEKTVLVGTSYGVIRG | failed
6 | MLSLKSEVLARHLPLFNGKSILLFGNVRDRFADQIRSISSHVAIFSHYFDYARHYNDVEFGLDCTTPANLGVFYWTKNKQECHYQLLQWLSQTAIGQQMLIIGENRAGVRSVEKLLSPFGQIAKIDSARRCGLYHFELQTIPQFDCQKFWKSYRLADLTVLSLPAAFSSTELDAGSQLLLSSFTNQDRLTGNVLDLGCGAGVIGAYLKQRFPAISLTMSDIHSMAIHSAQATLAKNKLTGTVIASDVFSHINDRFDLIVSNPPFHDDIDTAYHTVESLIMQAKNHLNYGGELRIVANAFLPYPDLLDKAFGSHQVVTKSNKFKVYSARV | failed
7 | SEEDDEVVAMIKELLDTRIRPTVQEDGGDVIYRGFEDGIVRLKLQGSCTSCPSSIITLKSGIQNMLQFYIPEVEGVEQV | not failed
8 | MSHTEAATVHSTAPASHPVRIALIGAGRIGSNHAEIVARLVPGASLVAVSDPVGESAQRLATTLGASLATTTVDDVLTSDEVDAVLITAPARSHTDLVVAAAAAGKHVFVEKPMAVTLADADRAIAAAADAGIVLQVGFNRRFAPGFAAARAAIDAQKVGAPQLLRSLTRDPGPYTADPARVPQWTIFLETLIHDFDTLCFLNPDARPVRVHAVADALVRPDAKGAGHLDTAVVTVQFDNGAIATAEASFSALYGYDVRAEVFGSGGMITAGSGLSTDMTYYGPDGMHADTARRDTDLLHSAYLGELTAFVDAIRTHTPAVVTGQDARTALSIALAAIRSVETGSAVDLDG | failed
9 | MITRLVLATAGAAVALGLPADVRAYEYEQEATTKLMTDMIVDLGGHDTVRRNSGKTVRCGDGGTRRVSIVRRGATTTYRGDYRNCRERGLTRDGFYEIVFKGDEIVSSTSKRSVNGELFDAAMAGNAAGVRKLIRARADVNYTESVDRTEGGTIDGVSPLMVATMAGSLDTVKLLVANGAWVNYLNSMAVNALWIAAHNGHPEIVRYLAGRGAYLNNSNVEDVTPLMAAAMNGHLAVVKFLVGAKADINAVHRDGDTALMFALAQNRTDIARFLIDAGADVAVRNRHGVTALLIAVAEGNEEIVRALLERKADVSVRTADGKSALDVARARGMDGIAKLLEAAGSY | failed
10 | MKKISVKFNQKQIFFGIIGLLLLGIIGIFAYKLNEYFSEPVIKAKSINLDASPSPKSKIIERLKKDQKIKVLKKNNNTDWWQVEIGSQKGWVASWLIQKKNYNAKNAGRLAEATIVLDPGHGGVDSGTQASNGAMEKTYTLRTALKVYKLLKAKNVHVIMTRHTNKTVALASRPALSNRVKANIYISFHFNSAGEQNAAEGYEVFKYNHNANSFASTIDKQFNNLPLYNRGVSFGNFEVLRDNKRPAILVEMGFMDSDYDFSYIQKSSYQQKVANDVTKSLTSYFN | failed
